The assay deals with formyl peptide receptor (FPR1) on U87 astrocytoma cells (human (endogenous in U87)) (UniProt P21462). Kind of assay: flow cytometry on cells.

One substance from article PMC3593554 can be followed below.

Chain of UniProt P21462 (P21462 whole entry): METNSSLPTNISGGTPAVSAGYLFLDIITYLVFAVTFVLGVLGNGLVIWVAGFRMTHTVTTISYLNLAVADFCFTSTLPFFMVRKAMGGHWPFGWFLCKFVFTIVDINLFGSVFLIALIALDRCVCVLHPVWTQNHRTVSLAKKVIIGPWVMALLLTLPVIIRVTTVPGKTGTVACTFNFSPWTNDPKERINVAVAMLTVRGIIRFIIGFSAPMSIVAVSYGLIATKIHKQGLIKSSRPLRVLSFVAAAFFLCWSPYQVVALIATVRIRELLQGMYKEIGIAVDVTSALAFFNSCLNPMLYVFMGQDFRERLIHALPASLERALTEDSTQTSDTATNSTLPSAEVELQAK

“Chemotaxis Inhibitory Protein of S. aureus (CHIPS) (from UniProt A6QIG7 29-149) (natural protein)”: the percent inhibition of fMLF-FITC binding at 100 ug/ml CHIPS stood at 81%.
